Test results: patent publication US20220112288A1 (published 2022)

How the values were obtained:
[1] = target: T1, human CD4 on cells (SKW3 cells; human PBMCs) (human, UniProt P01730 26-458); assay: SKW3 FACS binning; competitor OKT4a added after supernatant, anti-hu A647 secondary (background 5000, max binding 35000)
T1 construct: whole, on cells; SKW3 CD4 knockout cells served as the negative cell line for the WT vs KO ratios; also called hCD4; SKW3 WT

[2] = target: T1, human CD4 on cells (SKW3 cells; human …); assay: FACS confirmation, supernatant on human PBMCs, anti-mFc 647, percent of viable cells
[3] = target: T1, human CD4 on cells (SKW3 cells; human …); assay: SKW3 FACS binning; competitor RPA-T4-PE-Dazzle 594 added after supernatant (background 783, max binding 15000)
[4] = target: T1, human CD4 on cells (SKW3 cells; human …); assay: FACS primary screen, non-clonal hybridoma supernatant; SKW3 WT vs SKW3 CD4 KO cells, anti-hKappa-FITC
[5] = target: T1, human CD4 on cells (SKW3 cells; human …); assay: FACS confirmation, supernatant on human PBMCs, anti-mFc 647, CD4+ gate
[6] = target: T1, human CD4 on cells (SKW3 cells; human …); assay: FACS confirmation, supernatant on SKW3 WT cells, anti-mFc 647 (Bkrd gMFI = 3300)
[7] = target: T1, human CD4 on cells (SKW3 cells; human …); assay: FACS primary screen, non-clonal hybridoma supernatant; SKW3 WT vs SKW3 CD4 KO cells, anti-mFc-647
huCD4-HIS = target: T2, huCD4-HIS (human, UniProt P01730 26-390, limits assumed); assay: ELISA binning; competitor Ibalizumab, 100 ng/mL huCD4-HIS, anti-HIS HRP detection (background 45, max binding 3000000)
T2 construct: Named only in the head of the ELISA binning column; not shown: HIS tag

[8] = target: T1, human CD4 on cells (SKW3 cells; human …); assay: SKW3 FACS binning; competitor OKT4-A488 added after supernatant (background 2163, max binding 8200)
[9] = target: T1, human CD4 on cells (SKW3 cells; human …); assay: FACS confirmation, supernatant on SKW3 WT cells, anti-hu Kappa FITC (Bkrd gMFI = 2500)

Binder	OKT4a anti-hu A647 signal in binning [1]	RPA-T4-PE-Dazzle 594 signal in binning [3]	SKW3 WT vs KO anti-hKappa-FITC [4] [fold]	CD4+ gate RL1 Binding [5]	gMFI [6] [gMFI]	SKW3 WT vs KO anti-mFc-647 [7] [fold]	Ibalizumab ELISA binning signal (huCD4-HIS)	OKT4 A488 signal in binning [8]	gMFI [9] [gMFI]	CD4+ Percent Bound of Viable [2] [%]
75110_01L08A (antibody, V domains shown, Tested as non-clonal hybridoma supernatant (AlivaMab Mouse Kappa), detected with anti-mouse Fc and anti-human kappa) VH: QVQLQESGPGLVKPSETLSLTCTVSGGSISHYYWSWIRQPPGKGLEWIGYIHYSGTTNYNPSLKSRVTISVDTSKNQLSLKLRSVTAADTAVYYCARDQGFSSGGMDVWGQGTTVTVSS VL: not shown	9030	19800	2.6	200000	18700	4.3	58200	9750	5520	27
75110_02I18A (antibody, V domains shown, Tested as non-clonal hybridoma supernatant (AlivaMab Mouse Kappa), detected with anti-mouse Fc and anti-human kappa) VH: EVQVVESGGGLVQPGGSLRLSCAASGFTFSSYDMHWVRQATGKGLEWVSTIGTAGDTYYPGSVKGRFTISRENAKNSLYLQMNSLRAGDTAVYYCARGGYYYYGMDVWGQGTTVTVSS VL: EIVLTQSPGTLSLSPGERATLSCRASQSVSSSYLAWYQQKPGQSPRLLIHGASSRATGIPDRVSGSGSGTDFTLTISRLEPEDFAVYYCQQYGSSPFTFGPGTKVDIK	44800	4410	2.2	275000	16500	4.2	291000	9230	5370	29
75110_02E22A (antibody, V domains shown, Tested as non-clonal hybridoma supernatant (AlivaMab Mouse Kappa), detected with anti-mouse Fc and anti-human kappa) VH: QVQLQESGPGLVKPSETLSLTCTVSGGSISSFYWSWIRQPAGKGLEWIGRIYTSGSTNYNPSLKSRVTMSVDTSKNQFSLKLSSVTAADTAVYYCARELEKRNYYGMDVWGQGTTVTVSS VL: DIQMTQSPSSLSASVGDRVTITCQASHDISNYLNWYQQKPGKAPKLLIFDASTLETGVPSRFSGSGSGTYFTFTIRSLQPEDIATYYCQQYDSLPLTFGGGTKVEIK	41900	15300	1.6	276000	17300	4.7	1.86e+06	8480	4280	31
75110_01C18A (antibody, V domains shown, Tested as non-clonal hybridoma supernatant (AlivaMab Mouse Kappa), detected with anti-mouse Fc and anti-human kappa) VH: EVQLVESGGGLIQPGGSLRLSCAASGFTVSSNYMNWVRQAPGKGLEWVSVIYAGDNTYSADSVKGRFTISRDNSNNTLCLQMNSLRAEDTAVYYCAREGGTTGAFDIWGQGTMVTVSS VL: DIQMTQSPSSVSASVGDRVTITCRASQGINSWLAWYQQKPGKAPKLLIYAASSLQSGVPSRFSGSGSGTDFTLTISSLQPEDFATYYCQQGNSFPYTFGQGTKLEIK	36200	16500	3.7	308000	34900	14.7	1.78e+06	9490	6530	31
75110_04G02A (antibody, V domains shown, Tested as non-clonal hybridoma supernatant (AlivaMab Mouse Kappa), detected with anti-mouse Fc and anti-human kappa) VH: not shown VL: DIVMTQSPDSLAVSLGERATINCKSSQSVLYSSNNKNYLAWYQQKPGQPPKLLFYWASARESGVPDRFSGSGSGTDFTLTISSLQAEDVALYYCQQYFGSFPTFGQGTKLEIK	22500	12100	1.5	178000	12000	6.6	45	9330	4060	27
75110_05A11A (antibody, V domains shown, Tested as non-clonal hybridoma supernatant (AlivaMab Mouse Kappa), detected with anti-mouse Fc and anti-human kappa) VH: EVQLVESGGGLVKPGGSLTLSCAASGFTFSNTWMSWVRQAPGKGLEWVGRIKSKIDGGTTDYAAPVKGRFTISRDDSKNTLYLQMNSLKTEDTAVYYCTTSGTYSSGWGLFDYWGQGTLVTVSS VL: DIQMTQSPSSLSASVGDRVTITCQASQDISNYLNWYQQKPGKAPKLLIYDTSNLEAGVPSRFSGSGSGTHFTLTISSLQPEDIATYYCQQYDNLPFTFGGGTRVEIK	35000	17200	1.8	247000	24400	3.4	45	8160	6620	26

Second part, led by results:

OKT4a anti-hu A647 signal in binning [1]	RPA-T4-PE-Dazzle 594 signal in binning [3]	SKW3 WT vs KO anti-hKappa-FITC [4] [fold]	CD4+ gate RL1 Binding [5]	gMFI [6] [gMFI]	SKW3 WT vs KO anti-mFc-647 [7] [fold]	Ibalizumab ELISA binning signal (huCD4-HIS)	OKT4 A488 signal in binning [8]	gMFI [9] [gMFI]	Binder	CD4+ Percent Bound of Viable [2] [%]
42000	13300	1	258000	9180	2.7	230000	7980	3140	75110_08A13A (antibody, V domains shown, Tested as non-clonal hybridoma supernatant (AlivaMab Mouse Kappa), detected with anti-mouse Fc and anti-human kappa) VH: EVQLVESGGGLVQPGGSLRLSCAASGFIFSSYWMSWVRQAPGKGLEWVANIKQDGSEKYYMDSVKGRFTISRDNAKNSLYLQMNSLRAEDTAVYYCARDNSYYYYGMDVWGQGTTVTVSS VL: AIQMTQSPSSLSASVGDRVTITCRASQGIRDDLGWYQQKPGKAPKLLIFAASSLQSGVPSSFSGSGSGTDFTLTISSLQPEDFATYYCLHHYNYPYTFGQGTKLEIK	29
30000	15900	2.8	281000	42200	10.6	45	8920	8510	75110_05F19A (antibody, V domains shown, Tested as non-clonal hybridoma supernatant (AlivaMab Mouse Kappa), detected with anti-mouse Fc and anti-human kappa) VH: EVQLVESGGGLVQPGGSLRLSCAASGFTFSNYDVHWVRQPTGKGLEWVSTIGTAGDTYYPGSVKGRFTISRENAKNSLYLQMNSLRAGDTAVYYCARGGYDYYGLDVWGQGTTVTVSS VL: not shown	31
36400	16500	1.9	231000	45600	5.8	45	9330	8050	75110_05E13A (antibody, V domains shown, Tested as non-clonal hybridoma supernatant (AlivaMab Mouse Kappa), detected with anti-mouse Fc and anti-human kappa) VH: EVQLVESGGDLVKPGGSLRLSCAASGFSFSNAWMSWVRQAPGKGLEWVGRVESKTDGGTTDYAAPVKDRFTISRDDSKYTLYLQMNSLKTEDSAVYYCTIGGGFGLELYGFFDYWGQGTLVTVSS VL: DIQMTQSPSTLSASVGDRVTITCRASQSISSWLAWYQQKPGKAPMLLIYKASSLESGVPSRFSGSGSGTEFTLTISSLQPDDFATYYCLQYNSYYTFGQGTKLEIK	26
33800	8460	1.8	234000	30900	6.2	215000	7730	5830	75110_07J24A (antibody, V domains shown, Tested as non-clonal hybridoma supernatant (AlivaMab Mouse Kappa), detected with anti-mouse Fc and anti-human kappa) VH: QAQLQESGPGLVKPSETLSLTCTVSGGSISSYYYNWIRQPAGKGLEWIGRIYTSGRTDYNPSLKSRVTMSADTSKNQFSLKLSSVTAADTAVYYCARDEGPTDAFDIWGQGTMVTVSS VL: DIVMTQTPLSLPVTPGEPASISCRSSQSLLDSDDGNTYLDWYLQKPGQSPHLLIYTLSYRASGVPDRFSGSGSGSDFTLKISRVEAEDVGVYYCMQRIEFPFTFGPGTKVDIK	33
